Reference: patent US20220118103A1, “METHOD FOR DECREASING IMMUNOGENICITY OF PROTEIN AND PEPTIDE” (HANMI PHARM. CO., LTD., priority 2014, published 2022)
“Also recorded” adds a separate entry of the source. Read-outs that look alike come from different tables or passages of the source.

Assays:
[1] = Production of antibodies against long-acting insulinotropic peptide in normal rats, 26-week administration (bridging ELISA); type: in vivo, Sprague Dawley rat; conditions: for % positive / Positive (animals with antibody) / Time point (of positive antibody finding): SD rat
Experimental: The blood was collected before and during administration, at the 13rd, 19th and 26th week, and at the end of the recovery period, the serum was separated from this. It was determined on whether to produce the antibodies against the insulinotropic peptide.
(§1) In order to detect whether the conjugate of Example 3 has produced an anti-drug antibody (ADA) in the body of rat or Cynomolgus monkey, the conjugate was examined by the bridging ELISA method. The biotinylated conjugate of Example 3 was bound to the 96-well microplate in which streptavidin was coupled to the bottom thereof, and washed with water. Digoxigenin(DIG)-labeled conjugate of Example 3 (hereinafter, HM11260C) was added along with the serum samples of rat or monkey to react and then washed with water. Then, the horseradish peroxidase-coupled anti-DIG antibody (anti-DIG-POD antibody) was added and developed by TMB substrate (3,3′,5,5′-tetramethylbenzidine substrate).
(§2) Measurement sensitivity in the rat serum was 3.1 ng/ml, and the measurement sensitivity in monkey serum was 12.5 ng/ml. To evaluate the neutralizing capacity against HM11260C of detected anti HM11260C antibody, serum samples and HM11260C were added to the human […] cell line (GLP-1R/CHO) and then the inhibition rate of cAMP-induction was measured.

[2] = tested on: human GLP-1 overexpressed cell line (GLP-1R/CHO); assay: Neutralizing capacity of detected anti-HM11260C antibody: inhibition of cAMP induction; type: cell-based; conditions: for Neutralizing Ab: SD rat serum
Experimental: as §2

[3] = Production of antibodies in Cynomolgus monkey, 26-week administration (bridging ELISA); type: in vivo
Experimental: The blood was taken before and during administration, at the 12th, 19th and 26th week, and at the end of the recovery period, the serum was separated from this. It was determined whether to produce the antibodies against the insulinotropic peptide.
as §1, §2

[4] = tested on: peripheral blood mononuclear cells (PBMC) of the donor, CD8+ T cells removed
[5] = tested on: peripheral blood mononuclear cells (PBMC) of the donor, CD8+ T cells removed; remark: listed apart in the source
[6] = clinical, literature; cited from earlier work
[7] = Total of all groups incl. vehicle, n=200
[8] = Total of all groups incl. vehicle, n=40

Q: With “Imidazo-Acetyl Exendin-4 (Lys27)-Immunoglobulin Fc Conjugate [HM11260C]” as the substance, how does the “% positive” value ([1]; 26 weeks, high dose, n=60) read?
A: The value was 1.6%.

Q: And the “% positive” value ([1]; 26 weeks, low dose, n=40)?
A: Its value is 2.5%.

Q: And the “% positive” value ([1]; 26 weeks, mid dose, n=40)?
A: Its value is 0%.

Q: What about the “Positive (animals with antibody)” value ([1]; s.c. once a week 26 weeks + 4 weeks recovery, high dose, n=60) of the same substance?
A: Its value is 1.

Q: And the “Positive (animals with antibody)” value ([1]; s.c. once a week 26 weeks + 4 weeks recovery, low dose, n=40)?
A: Its value is 1.

Q: What about the “Positive (animals with antibody)” value ([1]; s.c. once a week 26 weeks + 4 weeks recovery, mid dose, n=40) of the same substance?
A: Its value is 0.

Q: And the “% positive” value [1, 7]?
A: The value was 1.0%.

Q: And the “Positive (animals with antibody)” value [1, 7]?
A: The value was 2.

Q: And the “Time point (of positive antibody finding)” value ([1]; high dose)?
A: The value was “recovery”.

Q: And the “Time point (of positive antibody finding)” value ([1]; low dose)?
A: The value was “Week 13”.

Q: And the “subjects in which antibodies were detected” value ([1]; among 160 rats administered with the drug)?
A: The value was “two”.

Q: And the “Neutralizing Ab” value ([2]; Total of all groups)?
A: Its value is 0.

Q: What about the “Neutralizing Ab” value ([2]; high dose) of the same substance?
A: The value was 0.

Q: What about the “Neutralizing Ab” value ([2]; low dose) of the same substance?
A: The value was 0.

Q: What about the “Neutralizing Ab” value ([2]; mid dose) of the same substance?
A: Its value is 0.

Q: And the “neutralizing ability of the detected antibodies” value ([2]; sera of the two antibody-positive rats)?
A: Its value is “not neutralizing antibodies; also recorded: no neutralizing ability”.

Q: And the “% positive” value [3, 8]?
A: The value was 0%.

Q: And the Positive/total [3, 8]?
A: Its Positive/total is 0.

Q: And the production of antibodies ([3]; all subjects)?
A: Its production of antibodies is “no production of the antibodies in all subjects was detected”.

Q: What about the “% positive” value ([3]; high dose, n=12) of the same substance?
A: The value was 0%.

Q: What about the “% positive” value ([3]; low dose, n=8) of the same substance?
A: Its value is 0%.

Q: And the “% positive” value ([3]; mid dose, n=8)?
A: Its value is 0%.

Q: And the Positive/total ([3]; s.c. once a week 26 weeks + 4 weeks recovery, high dose, n=12)?
A: The Positive/total was 0.

Q: What about the Positive/total ([3]; s.c. once a week 26 weeks + 4 weeks recovery, low dose, n=8) of the same substance?
A: Its Positive/total is 0.

Q: And the Positive/total ([3]; s.c. once a week 26 weeks + 4 weeks recovery, mid dose, n=8)?
A: The Positive/total was 0.

Q: Which results are given for imidazoacetyl-exendin-4 [CA Exendin-4]?
A: Frequency of Response (%) [4]: 12%; Proliferation and ELISpot % [4]: 10%; Frequency of Response (%) [5]: 12%

Q: Which “patients who produced an antibody” value [6] does the source give for Lixisenatide here?
A: Its value is 60-71%.

Q: Which “Proliferation and ELISpot %” value [4] does the source give for “Keyhole Limpet Haemocyanin [KLH, reference compound]” here?
A: Its value is 80%.
